The labels stand for the following.
B1: Hairpin Ribozyme (parent)
chain: GUCCUCUUUCACGUGCGCGUGAAAGAGAGAAGUGAACCAGAGAAACACACGUUGUGGUAUAUUACCUGGUA

We go through 167 variants from the RNAGym collection of RNA variant scans (doi:10.7554/elife.80360).

This data set covers variants of B1. The experiment in a line: self-cleavage, relative activity (ratio to wild type); higher = more cleavage; co-transcriptional.
As for C46G U60A, the self-cleavage was 0.091.
The same measure for A44U C66A: 0.151; for A44U C66U: 0.222; for C48G U53A: 0.101.
As for C48G U53C, the self-cleavage is 0.206.
In the case of C46G A71G, the self-cleavage was 0.166.
The same measure for A49C G54C: 0.187.
With A45G G57A, the self-cleavage was determined as 0.0893.
To A44U U60C belongs 0.103.
Regarding C48U U52A, the self-cleavage stood at 0.138.
To C48U U52G belongs 0.311; to A45G U67A, 0.0776; to A47C U70G, 0.272.
As for A49C A59U, the self-cleavage turned out to be 0.287.
The same measure for C46G A59U: 0.13.
To A47G A49U belongs 0.0814; to C46G C50U, 0.185.
On to A45U G51C, for which the self-cleavage is 0.0528.
For the variant A45G U52G, the self-cleavage was 0.0854.
Regarding A44U U52G, the self-cleavage worked out at 0.121.
For A45C U60C, the self-cleavage is 0.293.
As for C48G A61U, the self-cleavage worked out at 0.0929.
Take A45C C50G: the self-cleavage worked out at 0.211.
Take A45C C50A: the self-cleavage amounted to 0.209.
To A44U G56A belongs 0.191.
As for A49C, the self-cleavage amounted to 0.161.
For A47U U55A, the self-cleavage stood at 0.161.
For the variant C46G U70C, the self-cleavage was 0.203.
To A47G G57A belongs 0.151; to C48U G54U, 0.203; to C48U G54C, 0.129.
In the case of C48U G54A, the self-cleavage amounted to 0.163.
As for C46G G68A, the self-cleavage was 0.123.
For the variant C46G G68U, the self-cleavage stood at 0.19.
The same measure for A47U C65G: 0.139.
The same measure for A47U C65A: 0.0949; for A47G U58C: 0.17.
Take C46G U67C: the self-cleavage was 0.173.
Take C46G U67G: the self-cleavage was determined as 0.198.
Turning to A49C A64U, the self-cleavage was 0.178.
To A49C A61U belongs 0.104; to C46U U53A, 0.215.
To C46U U53G belongs 0.216.
The same measure for A45G C50U: 0.174.
Consider A45G C50A, for which the self-cleavage stood at 0.123.
Regarding C48G G54C, the self-cleavage worked out at 0.189.
With C48G G54A, the self-cleavage is 0.172.
The same measure for A47C C50A: 0.29; for C46U U60A: 0.16.
Regarding C46U U60C, the self-cleavage was found to be 0.247.
The same measure for C46A U60C: 0.277; for C46A U60A: 0.0649.
Consider A47U U63C, for which the self-cleavage was 0.175.
To A45C U53G belongs 0.138; to A47C G56U, 0.149; to C46A G56U, 0.077.
On to A45C C48G, for which the self-cleavage is 0.188.
Consider A45C C48A, for which the self-cleavage was 0.0612.
Take A47U G69U: the self-cleavage was determined as 0.138.
The same measure for A47U G69A: 0.107; for A45G U58A: 0.174.
Regarding A45C U52G, the self-cleavage worked out at 0.0239.
To A45C U52C belongs 0.176; to A47G U63A, 0.211; to A47G U63G, 0.0332.
As to A47C U60C, the self-cleavage turned out to be 0.418.
On to A47G A64G, for which the self-cleavage was determined as 0.0949.
To A47G A64C belongs 0.0744.
With C48U U63A, the self-cleavage is 0.173.
A47U C66U: the self-cleavage is 0.228.
As for A47U C66A, the self-cleavage amounted to 0.157.
The same measure for C46U U58C: 0.221.
Regarding A45G G54C, the self-cleavage was 0.0826.
To C48G A49G belongs 0.123; to C48G A49U, 0.104.
To C46G U55G belongs 0.107; to C46U G56A, 0.138.
To C46U G56C belongs 0.204.
A47C C66A: the self-cleavage amounted to 0.205.
Consider A44U A64C, for which the self-cleavage is 0.216.
To A44U A64U belongs 0.203.
To C48G U63C belongs 0.0816; to C48G U52G, 0.225.
Consider A45U G69U, for which the self-cleavage is 0.197.
To C46U G54U belongs 0.179; to C48G U67C, 0.117; to C48G U67A, 0.259.
The same measure for C46U C50G: 0.0749; for A47U U52C: 0.0664.
To A47C A61U belongs 0.137; to C48G G69A, 0.224; to C48G G69C, 0.0597.
Consider C48G G69U, for which the self-cleavage turned out to be 0.0941.
Regarding A44U U55C, the self-cleavage amounted to 0.168.
A44U C48A: the self-cleavage came to 0.124.
The same measure for C46U U63C: 0.106.
C46A A61U: the self-cleavage worked out at 0.171.
In the case of A49C G57C, the self-cleavage worked out at 0.121.
As for A47U U60C, the self-cleavage was found to be 0.0859.
To A47U U60G belongs 0.0964; to A47U U60A, 0.0931; to A45C U67G, 0.0812.
To A47C U67A belongs 0.128.
The same measure for A45G U55A: 0.121; for A45U U67G: 0.131; for A45U C66U: 0.117.
Consider A45U C66A, for which the self-cleavage worked out at 0.204.
For the variant C46G A61G, the self-cleavage stood at 0.126.
To C46G A61U belongs 0.157; to A45C A59G, 0.208.
The same measure for C48U G57C: 0.163.
C48U G57U: the self-cleavage stood at 0.204.
The same measure for A47U A71U: 0.234; for A47U A71G: 0.191.
On to C48G A59C, for which the self-cleavage is 0.119.
In the case of C48A A61U, the self-cleavage stood at 0.163.
Regarding A45G C66A, the self-cleavage worked out at 0.176.
In the case of A45G C66G, the self-cleavage is 0.122.
The same measure for C48A G69C: 0.135; for C48A A49G: 0.215; for C48A A49C: 0.155.
To C48A A49U belongs 0.172.
To A47C U55A belongs 0.195; to A45G A49C, 0.103.
Consider C48A G68A, for which the self-cleavage was found to be 0.165.
As to C48A G68C, the self-cleavage was 0.246.
To A47U G54A belongs 0.159; to A47U G54C, 0.144; to A47U G54U, 0.145.
With A47C A49C, the self-cleavage was found to be 0.204.
To A47C A49G belongs 0.308; to A44U A71C, 0.3; to A44U A71U, 0.256.
The same measure for A45G U63C: 0.0324.
To A45G U63G belongs 0.226; to A45G C48A, 0.109.
As for A47U A59G, the self-cleavage came out at 0.151.
To A49C U55C belongs 0.273; to C46A A64G, 0.185; to C46A A64C, 0.0755.
The same measure for C46A A64U: 0.255.
Turning to C46U C66U, the self-cleavage was 0.149.
To A47G C50A belongs 0.172; to A47G C50G, 0.105; to C48U G56A, 0.222.
The same measure for C48U A49C: 0.225; for C46G U62A: 0.148.
The same measure for C48A U52G: 0.131; for C48A U52C: 0.162.
Regarding A47C G69U, the self-cleavage stood at 0.0997.
On to A47C G69A, for which the self-cleavage was 0.151.
A44U A61G: the self-cleavage worked out at 0.124.
For the variant A45C A61G, the self-cleavage turned out to be 0.105.
Take A49C C50G: the self-cleavage was 0.129.
A45U A64C: the self-cleavage turned out to be 0.18.
The same measure for A45U C65G: 0.155.
Consider C46G G54C, for which the self-cleavage came to 0.0768.
To A45C G54U belongs 0.152; to C46G A49C, 0.13.
To C46U C65G belongs 0.087; to C46A A71C, 0.342.
Take A45U U58C: the self-cleavage was 0.0664.
The same measure for A47G U62A: 0.0725.
To A44U G54A belongs 0.181; to A44U C50U, 0.252; to A47G G51U, 0.15.
To A47G G51C belongs 0.221.
